Data reported in paper PMC6821365.
Numbering of substitutions follows the chain as printed.

Assays:
[1] = biological target: T1, yedK W67A (Escherichia coli (gene from BL21 …, UniProt P76318 2-222, W67A)); assay: ITC
T1 sequence: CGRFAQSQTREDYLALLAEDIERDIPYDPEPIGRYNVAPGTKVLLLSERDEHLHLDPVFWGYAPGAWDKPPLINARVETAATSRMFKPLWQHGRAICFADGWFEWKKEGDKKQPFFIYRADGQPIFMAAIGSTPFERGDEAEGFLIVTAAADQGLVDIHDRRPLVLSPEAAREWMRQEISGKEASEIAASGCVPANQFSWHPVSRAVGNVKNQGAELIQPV

[2] = biological target: T2, yedK T149A (Escherichia coli (gene from BL21 …, UniProt P76318 2-222, T149A)); assay: ITC
T2 sequence: T1 sequence with A66W, T148A

## CGGTCGATTC (ssDNA) [ssDNA]
[1]
  binding result: no binding
[2]
  binding result: no binding
